Earlier results as cited in patent US20100233200A1, “VECTOR ENCODING THERAPEUTIC POLYPEPTIDE AND SAFETY ELEMENTS TO CLEAR […]” (priority 2007, published 2010).

B1: R200A mutant: modified human tmpk, SEQ ID NOS: 15 and 16 (protein)
chain: MAARRGALIVLEGVDRAGKSTQSRKLVEALCAAGHRAELLRFPERSTEIGKLLSSYLQKKSDVEDHSVHLLFSANRWEQVPLIKEKLSQGVTLVVDRYAFSGVAFTGAKENFSLDWCKQPDVGLPKPDLVLFLQLQLADAAKRGAFGHERYENGAFQERALRCFHQLMKDTTLNWKMVDASKSIEAVHEDIRVLSEDAIATATEKPLGELWK
B2: F105Y mutant: modified human tmpk, SEQ ID NO: 11, SEQ ID NO: 21 (protein, UniProt P23919 2-212, looked up, variant F105Y)
Thymidylate kinase: AARRGALIVLEGVDRAGKSTQSRKLVEALCAAGHRAELLRFPERSTEIGKLLSSYLQKKSDVEDHSVHLLFSANRWEQVPLIKEKLSQGVTLVVDRYAFSGVAYTGAKENFSLDWCKQPDVGLPKPDLVLFLQLQLADAAKRGAFGHERYENGAFQERALRCFHQLMKDTTLNWKMVDASKSIEAVHEDIRVLSEDAIRTATEKPLGELWK

Test system: human tmpk
Conditions: relative to wild-type tmpk; cited from earlier work

| Molecule | enzymatic activity (dTMP to dTDP or AZT-MP to AZT-DP) |
| --- | --- |
| B1 | superior enzymatic activity |
| B2 | superior enzymatic activity |
